Each block holds one molecule with its values, some of them ahead of it.
Key:
activin A [1] = target: T1, activin A (UniProt P08476 311-426); assay: cell-based or functional assay
T1 sequence (looked up): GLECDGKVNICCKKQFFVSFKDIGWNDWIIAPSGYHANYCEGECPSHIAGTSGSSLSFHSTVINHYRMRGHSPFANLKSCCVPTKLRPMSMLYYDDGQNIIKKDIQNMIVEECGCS

GDF11 [2] = target: T2, GDF11 (UniProt O95390 299-407); assay: cell-based or functional assay
T2 sequence (looked up): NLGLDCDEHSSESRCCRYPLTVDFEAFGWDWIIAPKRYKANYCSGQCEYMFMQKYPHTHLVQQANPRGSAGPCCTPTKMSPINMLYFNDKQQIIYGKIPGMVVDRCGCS

BMP6 = target: T3, BMP6 (UniProt P22004 382-513, limits assumed); assay: Biacore SPR; receptor-Fc captured by anti-Fc antibody, ligand injected
T3 sequence (looked up): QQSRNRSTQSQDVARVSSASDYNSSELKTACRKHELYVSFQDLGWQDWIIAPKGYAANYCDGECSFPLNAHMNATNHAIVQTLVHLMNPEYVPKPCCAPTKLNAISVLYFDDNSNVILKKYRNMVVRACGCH
Procedure: (§1) Ligands were injected and allowed to flow over the captured receptor protein.

GDF8 = target: T4, GDF8 (UniProt O14793 267-375); assay: as above
T4 construct: also called myostatin
T4 sequence (looked up): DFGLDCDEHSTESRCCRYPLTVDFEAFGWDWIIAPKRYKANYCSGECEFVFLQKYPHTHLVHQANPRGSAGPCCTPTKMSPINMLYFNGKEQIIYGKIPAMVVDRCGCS
Procedure: as §1

activin B = target: T5, activin B (UniProt P09529 293-407); assay: as above
T5 sequence (looked up): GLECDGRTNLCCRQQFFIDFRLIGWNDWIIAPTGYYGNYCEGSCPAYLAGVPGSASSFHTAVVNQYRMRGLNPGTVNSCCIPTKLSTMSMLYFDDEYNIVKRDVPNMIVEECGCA
Procedure: as §1

activin A [3] = target: T1, activin A; assay: as above
Procedure: as §1

GDF11 [4] = target: T2, GDF11; assay: as above
Procedure: as §1

BMP10 = target: T6, BMP10 (UniProt O95393 317-424); assay: as above
T6 sequence (looked up): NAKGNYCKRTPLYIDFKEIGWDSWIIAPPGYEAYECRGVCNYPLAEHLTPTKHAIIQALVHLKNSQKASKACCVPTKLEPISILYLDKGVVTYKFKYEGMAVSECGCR
Procedure: as §1

GDF3 = target: T7, GDF3 (UniProt Q9NR23 251-364); assay: as above
T7 sequence (looked up): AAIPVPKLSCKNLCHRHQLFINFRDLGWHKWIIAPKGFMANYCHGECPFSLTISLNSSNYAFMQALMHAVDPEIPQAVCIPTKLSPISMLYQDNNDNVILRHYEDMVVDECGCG
Procedure: as §1

BMP9 = target: T8, BMP9 (UniProt Q9UK05 320-429); assay: Biacore SPR; receptor-Fc captured by anti-Fc antibody, ligand injected; transient interaction
T8 construct: also called GDF2
T8 sequence (looked up): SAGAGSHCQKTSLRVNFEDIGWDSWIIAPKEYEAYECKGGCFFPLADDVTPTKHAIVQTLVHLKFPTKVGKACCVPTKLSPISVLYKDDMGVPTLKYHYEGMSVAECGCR

Activin Inhibition Activity, KI (A-204 CAGA12 luciferase reporter gene assay) (activin A [1]): 1000 nM
GDF11 Inhibition Activity, KI (A-204 CAGA12 luciferase reporter gene assay) (GDF11 [2]): 1000 nM
Molecule: ActRIIB-Fc A64 (20-134) (from UniProt Q13705 20-134) (Fc fusion)

Kd (BMP6): 2.7 nM
koff (BMP6): 0.0055 s⁻¹
kon (BMP6): 2e+06 M⁻¹ s⁻¹
Kd (GDF8): 0.55 nM
koff (GDF8): 0.00021 s⁻¹
kon (GDF8): 390000 M⁻¹ s⁻¹
Kd (activin B): 0.006 nM
koff (activin B): 4e-05 s⁻¹
kon (activin B): 7.1e+06 M⁻¹ s⁻¹
Kd (activin A [3]): 0.012 nM
koff (activin A [3]): 0.00015 s⁻¹
kon (activin A [3]): 1.3e+07 M⁻¹ s⁻¹
Kd (GDF11 [4]): 0.003 nM
koff (GDF11 [4]): 0.00011 s⁻¹
kon (GDF11 [4]): 3.8e+07 M⁻¹ s⁻¹
Kd (BMP10): 0.074 nM
koff (BMP10): 0.0041 s⁻¹
kon (BMP10): 5.6e+07 M⁻¹ s⁻¹
Kd (GDF3): 4.9 nM
koff (GDF3): 0.017 s⁻¹
kon (GDF3): 3.4e+06 M⁻¹ s⁻¹
Kd (BMP9): 3.4 nM
B1: ALK4-Fc:ActRIIB-Fc heterodimer (Fc fusion)
chain 1: SGPRGVQALLCACTSCLQANYTCETDGACMVSIFNLDGMEHHVRTCIPKVELVPAGKPFYCLSSEDLRNTHCCYTDYCNRIDLRVPSGHLKEPEHPSMWGPVE
chain 2: GRGEAETRECIYYNANWELERTNQSGLERCEGEQDKRLHCYASWRNSSGTIELVKKGCWLDDFNCYDRQECVATEENPQVYFCCCEGNFCNERFTHLPEAGGPEVTYEPPPTAPT
